These results are taken from patent US20150299305A1.

Common to all, as to assay: SPR, antibody immobilized, monomeric FcγR injected, steady state, pH 7.4; SPR, monomeric FcγR
For assay [1], the target named is Human FcγRI (CD64) (human) (UniProt P12314).
The target of assay [2] is Human FcγRIIIb (CD16b) (human) (UniProt O75015).
Assay [3] concerns the target Human FcγRIIIa (CD16a) (human) (UniProt P08637).

Sequence of Human FcγRIIIb (CD16b) (human) (O75015 17-200 limits assumed): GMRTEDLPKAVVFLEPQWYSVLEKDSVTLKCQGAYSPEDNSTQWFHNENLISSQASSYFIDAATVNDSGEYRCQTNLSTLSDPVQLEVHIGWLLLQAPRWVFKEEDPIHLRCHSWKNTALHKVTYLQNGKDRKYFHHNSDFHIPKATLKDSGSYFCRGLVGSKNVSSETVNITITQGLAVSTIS
Sequence of Human FcγRIIIa (CD16a) (human) (P08637 17-208 limits assumed): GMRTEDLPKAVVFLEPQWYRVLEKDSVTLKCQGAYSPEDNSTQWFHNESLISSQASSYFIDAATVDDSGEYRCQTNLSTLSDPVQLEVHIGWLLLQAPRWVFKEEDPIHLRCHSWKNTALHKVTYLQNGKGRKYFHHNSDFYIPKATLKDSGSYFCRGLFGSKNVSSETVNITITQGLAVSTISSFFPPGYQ
Sequence of Human FcγRI (CD64) (human) (P12314 16-288 limits assumed): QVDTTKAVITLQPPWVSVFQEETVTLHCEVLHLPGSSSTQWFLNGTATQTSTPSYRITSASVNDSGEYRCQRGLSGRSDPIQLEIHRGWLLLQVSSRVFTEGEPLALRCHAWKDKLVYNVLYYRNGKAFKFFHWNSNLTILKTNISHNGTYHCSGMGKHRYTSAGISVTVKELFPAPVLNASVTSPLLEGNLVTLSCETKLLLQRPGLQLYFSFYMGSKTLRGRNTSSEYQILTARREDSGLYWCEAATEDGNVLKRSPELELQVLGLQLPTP

B1: eculizumab (antibody, human IgG2, kappa)
heavy: QVQLVQSGAEVKKPGASVKVSCKASGYIFSNYWIQWVRQAPGQGLEWMGEILPGSGSTEYTENFKDRVTMTRDTSTSTVYMELSSLRSEDTAVYYCARYFFGSSPNWYFDVWGQGTLVTVSSASTKGPSVFPLAPCSRSTSESTAALGCLVKDYFPEPVTVSWNSGALTSGVHTFPAVLQSSGLYSLSSVVTVPSSNFGTQTYTCNVDHKPSNTKVDKTVERKCCVECPPCPAPPVAGPSVFLFPPKPKDTLMISRTPEVTCVVVDVSQEDPEVQFNWYVDGVEVHNAKTKPREEQFNSTYRVVSVLTVLHQDWLNGKEYKCKVSNKGLPSSIEKTISKAKGQPREPQVYTLPPSQEEMTKNQVSLTCLVKGFYPSDIAVEWESNGQPENNYKTTPPVLDSDGSFFLYSRLTVDKSRWQEGNVFSCSVMHEALHNHYTQKSLSLSLGK
light: DIQMTQSPSSLSASVGDRVTITCGASENIYGALNWYQQKPGKAPKLLIYGATNLADGVPSRFSGSGSGTDFTLTISSLQPEDFATYYCQNVLNTPLTFGQGTKVEIKRTVAAPSVFIFPPSDEQLKSGTASVVCLLNNFYPREAKVQWKVDNALQSGNSQESVTEQDSKDSTYSLSSTLTLSKADYEKHKVYACEVTHQGLSSPVTKSFNRGEC
Take B1: the Kd in assay [1] is 3.78 µM; in assay [2] it was 3.49 µM; in assay [3], 6.78 µM.
